± gives the uncertainty stated by the source.
Assay: protein stability index of a GFP-peptide fusion (yeast GPS) (PSI 1-4); higher = more stable; sorted into four equal gates, so the index is relative within each strain
How it was run: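 Peptides tiling yeast proteins in 17-residue segments were fused downstream of GFP, with Cherry expressed from the same plasmid. As a pooled library in yeast, mid-log cultures grown in leucine-free medium were sorted into four equal gates by GFP/Cherry fluorescence ratio. Gate plasmids were PCR-amplified and Illumina-sequenced, and barcodes linked reads to strains. Each peptide received a protein stability index equal to the sum of each gate's read frequency times its gate number.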

Row | Sequence | protein stability index (doa10∆) | protein stability index (pdr5∆) | protein stability index (san1∆) | protein stability index (ubr1∆)
1 | QNPKLFQTIFSKQDLIH [SIN4] | 2.43 ± 0.058 | 2.02 ± 0.046 | 2.02 ± 0.085 | 2.02 ± 0.051
2 | SSTITGDVVLAAAYSHE [RPL5] | 2.32 ± 0.056 | 2.56 ± 0.06 | 2.61 ± 0.057 | 2.31 ± 0.058
3 | IKSKADAWVSAAHYNRE [PRP8] | 1.79 ± 0.078 | 1.48 ± 0.065 | 2.6 ± 0.06 | 1.7 ± 0.11
4 | SKTGIIAYSDSQSSNAN [SIN4] | 2.63 ± 0.043 | 2.6 ± 0.043 | 2.68 ± 0.044 | 2.53 ± 0.058
5 | FTICLNDRNPRLNENKK [CSN12] | 3.03 ± 0.053 | 3.21 ± 0.056 | 3.11 ± 0.043 | 3.06 ± 0.043
6 | IHSGVLSSIESDLKKRE [YMR153W/NUP53] | 3.07 ± 0.084 | 3.17 ± 0.073 | 3.1 ± 0.066 | 3.09 ± 0.074
7 | ASHNEKDQDSQIELSCN [SRP72] | 2.85 ± 0.079 | 2.41 ± 0.079 | 2.9 ± 0.051 | 3.1 ± 0.058
8 | HLGERAASVIGMLVALG [RPC82] | 2.05 ± 0.23 | 1.71 ± 0.1 | 1.75 ± 0.21 | 2.04 ± 0.067
9 | HGAFMDIIWLQRDLGLY [RRP6] | 1.95 ± 0.047 | 1.49 ± 0.052 | 1.23 ± 0.069 | 1.46 ± 0.032
10 | KDFTNKNLIQLISLKLL [SRB8] | 1.28 ± 0.042 | 1.49 ± 0.035 | 1.66 ± 0.067 | 1.91 ± 0.032
11 | LPLLILENSSRSPRVVT [NUT1] | 1.76 ± 0.054 | 2 ± 0.046 | 2.258 ± 0.015 | 1.94 ± 0.039
12 | LLLKKIIKDYVLDIVPG [SRB4] | 2.74 ± 0.094 | 2.52 ± 0.084 | 2.33 ± 0.1 | 2.71 ± 0.073
13 | DIVSIDIEEPQLDLLDD [MTW1] | 2.66 ± 0.098 | 3.17 ± 0.097 | 3.25 ± 0.05 | 3.16 ± 0.048
14 | HDISKTETSNEDEDEDD [SNU114] | 3.02 ± 0.058 | 3.03 ± 0.057 | 2.98 ± 0.039 | 3.08 ± 0.037
15 | VVLRLYLKDNITLLTRQ [GRR1] | 1.88 ± 0.057 | 1.75 ± 0.084 | 1.34 ± 0.11 | 1.98 ± 0.067
16 | AAGNASSLPPGEILLPD [SNF5] | 3.15 ± 0.077 | 3.2 ± 0.063 | 3.1 ± 0.06 | 3.3 ± 0.053
17 | TEVIIRATRTQDVLGEN [RPS3] | 3.42 ± 0.26 | 2.92 ± 0.12 | 3.14 ± 0.13 | 3.35 ± 0.079
18 | LAAMAVLESHWKQDLTK [PUP1] | 3.24 ± 0.16 | 3.24 ± 0.14 | 2.48 ± 0.21 | 3.71 ± 0.18
19 | REVENSVSLLNSDIANL [SMC1] | 2.8 ± 0.063 | 2.59 ± 0.077 | 2.99 ± 0.07 | 2.86 ± 0.072
20 | DDVYRPAAESKIFTPNL [SNF5] | 2.82 ± 0.085 | 3.09 ± 0.11 |  | 3.23 ± 0.19
21 | DRREKAERTMSKKETKL [SMC2] | 3.31 ± 0.13 | 3.36 ± 0.092 | 3.19 ± 0.12 | 3.39 ± 0.099
22 | LAGKYIPNLTAKPFQVT [FAS1] | 2.37 ± 0.06 | 2.76 ± 0.053 | 2.29 ± 0.1 | 2.63 ± 0.048
23 | TKTVKRASKALIERYYP [RPS17A] |  | 2.57 ± 0.21 |  | 
24 | SVANTPSEIPDAHKAEQ [SWI3] | 3.04 ± 0.066 | 3.25 ± 0.065 | 3.42 ± 0.077 | 3.03 ± 0.061
25 | NEKIEKRSDLTGANSIY [UBP6] | 2.75 ± 0.086 | 3.01 ± 0.062 | 3.06 ± 0.075 | 3.15 ± 0.068
26 | DRLILDLKLPPMDAYLK [SNU114] | 3.5 ± 0.14 | 3.34 ± 0.11 | 3.01 ± 0.063 | 3.17 ± 0.063
27 | VGVDQLSIELEGGKNQA [YJL039C/NUP192] | 3.08 ± 0.27 | 3.23 ± 0.16 | 3.06 ± 0.076 | 2.46 ± 0.14

Row | Sequence | protein stability index (doa10∆) | protein stability index (pdr5∆) | protein stability index (san1∆) | protein stability index (ubr1∆)
28 | AEEQTKLQSQSLHTKNV [YLR018C/POM34] | 3.29 ± 0.058 | 3.44 ± 0.063 | 3.1 ± 0.071 | 3.13 ± 0.049
29 | TARVMGGLKNGVLYQGN [DIS3] | 3.19 ± 0.069 | 3.3 ± 0.071 | 3.06 ± 0.047 | 3.13 ± 0.056
30 | MDPGAPLPVETPRDRRK [SSN2] |  |  | 3.25 ± 0.25 | 
31 | NNVTSNPSEFTPNMVNS [SSN2] | 2.93 ± 0.063 | 3.03 ± 0.053 | 2.66 ± 0.09 | 3.1 ± 0.05
32 | GEKKVGSNGELFGGRHY [SWP82] | 3.13 ± 0.2 | 3.26 ± 0.13 | 3.73 ± 0.12 | 
33 | GKPVSLPLLYNFNPDNG [FAS1] | 2.93 ± 0.095 | 3.27 ± 0.1 | 2.62 ± 0.075 | 2.92 ± 0.076
34 | EFKIEQNNEQNPIDPFN [YDL116W/NUP84] | 2.96 ± 0.087 | 3.11 ± 0.087 | 3.05 ± 0.067 | 3.23 ± 0.061
35 | SPMGNAYSMGAQNQGGQ [PGD1] | 2.57 ± 0.062 | 2.91 ± 0.069 | 2.91 ± 0.064 | 2.71 ± 0.043
36 | YGTATADDADIEMKDVS [MED1] | 3 ± 0.13 | 3.17 ± 0.081 | 3.01 ± 0.061 | 3.15 ± 0.071
37 | NVAVDIINFGEIEQNTE [RPN10] | 3.23 ± 0.092 | 3.39 ± 0.075 | 3.27 ± 0.059 | 3.14 ± 0.066
38 | VHDKVLEDMVFPTEIVG [RPS7B] | 2.63 ± 0.13 | 2.83 ± 0.08 | 2.56 ± 0.083 | 3.06 ± 0.054
39 | PNEHPGAKYVIRDSGDR [RPO21] | 3.01 ± 0.084 | 3.1 ± 0.087 | 2.7 ± 0.15 | 3.03 ± 0.069
40 | KLDENNAQLSCITKQDG [PUP2] | 2.79 ± 0.12 | 3.13 ± 0.087 | 3.11 ± 0.098 | 3.06 ± 0.088
41 | LSNLHESNKRYRFFKKI [SNF12] | 2.79 ± 0.12 | 2.68 ± 0.081 | 2.9 ± 0.08 | 2.24 ± 0.065
42 | DNSNVMTVKLESITYQK [RGR1] | 2.88 ± 0.096 | 2.43 ± 0.1 | 3.1 ± 0.12 | 2.93 ± 0.1
43 | EAHNKALNQFKRKLLEH [RPT4] | 3.32 ± 0.27 | 3.14 ± 0.17 | 3.46 ± 0.12 | 3.4 ± 0.15
44 | PWFWLLPLWHLLNRIPR [POP1] | 2.57 ± 0.084 | 1.56 ± 0.054 | 1.33 ± 0.12 | 1.26 ± 0.046
45 | KDSSLNYSSESYRNAFT [YJL039C/NUP192] | 2.89 ± 0.06 | 2.32 ± 0.064 | 2.02 ± 0.069 | 2.85 ± 0.047
46 | SGNGSNPNTNTNSNNTP [PGD1] | 2.78 ± 0.062 | 3 ± 0.056 | 2.95 ± 0.038 | 2.87 ± 0.041
47 | VNTTRRFQYSDDEPAEK [YMR129W/POM152] | 2.87 ± 0.22 | 3.17 ± 0.17 | 2.86 ± 0.19 | 2.95 ± 0.19
48 | GCEANIHSLVKQRLDLA [YIL149C/MLP2] | 3.06 ± 0.12 | 3.19 ± 0.11 | 3.05 ± 0.062 | 3.19 ± 0.076
49 | TGGTRTKTPGPGGQAAL [RPS14A] | 3.24 ± 0.04 | 3.11 ± 0.036 | 3.05 ± 0.034 | 3.149 ± 0.028
50 | PPDSDSSISVMGENEKP [RPT3] | 1.47 ± 0.16 | 1.22 ± 0.12 | 1.21 ± 0.15 | 1.77 ± 0.2
51 | DKILQLNDRFQTLSSHL [PGD1] | 2.46 ± 0.048 | 2.66 ± 0.042 | 2.55 ± 0.051 | 2.46 ± 0.058
52 | YATKDGVAHLLNRFNFQ [QCR2] | 2.45 ± 0.088 | 2.67 ± 0.053 | 1.87 ± 0.29 | 2.6 ± 0.057
53 | GLNDLVEQYKFRETTHS [BRR2] | 3.16 ± 0.091 | 3.03 ± 0.074 | 2.84 ± 0.082 | 3.1 ± 0.061
54 | GLNNDFLFQNINFERID [GRR1] | 2.09 ± 0.05 | 2.16 ± 0.057 | 2.19 ± 0.055 | 2.12 ± 0.042

Reference: the supplement of paper PMC9732359
